Legend:
HLA-B*08:01 = experiment: IEDB peptide-MHC binding, purified MHC/competitive/radioactivity; filed as Kd, often an IC50 or EC50 that approximates it; ≥ and ≤ were set here for values at or beyond the usual limits of such assays
HLA-A*01:01 [1] = experiment: IEDB peptide-MHC binding, purified MHC/direct/fluorescence; filed as Kd, often an IC50 or EC50 that approximates it; ≥ and ≤ were set here for values at or beyond the usual limits of such assays; details: source organism: SARS-CoV1
HLA-A*03:01 [2] = experiment: as above; details: source organism: SARS-CoV1
HLA-A*11:01 [3] = experiment: as above; details: source organism: SARS-CoV1
HLA-B*15:01 = experiment: as above; details: source organism: SARS-CoV1
HLA-B*58:01 = experiment: as above; details: source organism: SARS-CoV1
HLA-A*23:01 = experiment: IEDB peptide-MHC binding, purified MHC/competitive/radioactivity; filed as Kd, often an IC50 or EC50 that approximates it; ≥ and ≤ were set here for values at or beyond the usual limits of such assays
HLA-A*24:02 = experiment: as above
HLA-A*26:01 = experiment: as above
HLA-A*29:02 = experiment: as above
HLA-A*30:02 = experiment: as above
HLA-A*01:01 [4] = experiment: as above
HLA-B*53:01 = experiment: as above; details: source organism: Dengue virus 4 Philippines/H241/1956
HLA-A*69:01 = experiment: IEDB peptide-MHC binding, purified MHC/direct/fluorescence; filed as Kd, often an IC50 or EC50 that approximates it; ≥ and ≤ were set here for values at or beyond the usual limits of such assays; details: source organism: Homo sapiens
HLA-B*07:02 = experiment: as above; details: source organism: Homo sapiens
HLA-B*40:01 = experiment: IEDB peptide-MHC binding, purified MHC/competitive/radioactivity; filed as Kd, often an IC50 or EC50 that approximates it; ≥ and ≤ were set here for values at or beyond the usual limits of such assays; details: source organism: Dengue virus 4 Philippines/H241/1956
HLA-B*44:02 = experiment: as above; details: source organism: Dengue virus 4 Philippines/H241/1956
HLA-B*44:03 = experiment: as above; details: source organism: Dengue virus 4 Philippines/H241/1956
HLA-A*03:01 [5] = experiment: as above; details: source organism: SARS coronavirus Tor2
HLA-A*11:01 [6] = experiment: as above; details: source organism: SARS coronavirus Tor2
HLA-A*31:01 = experiment: as above; details: source organism: SARS coronavirus Tor2
HLA-A*33:01 = experiment: as above; details: source organism: SARS coronavirus Tor2
HLA-A*68:01 = experiment: as above; details: source organism: SARS coronavirus Tor2
[7] = source organism: Vaccinia virus WR
[8] = source organism: SARS coronavirus Tor2
[9] = source organism: Mammarenavirus brazilense
[10] = source organism: Mammarenavirus choriomeningitidis
[11] = source organism: Mammarenavirus lassaense

Sequence | Kd (HLA-A*23:01; [8]) [nM] | Kd (HLA-A*24:02; [8]) [nM] | Kd (HLA-A*26:01; [8]) [nM] | Kd (HLA-A*29:02; [8]) [nM] | Kd (HLA-A*30:02; [8]) [nM] | Kd (HLA-A*01:01 [4]; [8]) [nM] | further results
MMKWIISIL | – | – | – | – | – | – | Kd (HLA-B*08:01; [7]): 1.28 nM
LTDDMIAAY | ≥ 77800 | ≥ 77600 | 1800 | 529 | 326 | – | Kd (HLA-A*01:01 [1]): 7 nM; Kd (HLA-A*03:01 [2]): 19300 nM; Kd (HLA-A*11:01 [3]): 4050 nM; Kd (HLA-B*15:01): 636 nM; Kd (HLA-B*58:01): 6940 nM
YNKQSLVSL | – | – | – | – | – | – | Kd (HLA-B*08:01; [7]): 30.1 nM
CKDGHVETFY | ≥ 70000 | ≥ 70300 | 3870 | 171 | 506 | 8080 | –
LLQMENKAWL | – | – | – | – | – | – | Kd (HLA-B*08:01; source organism: Dengue virus 2 16681-PDK53): 280 nM
LLEKCDLQNY | ≥ 70000 | ≥ 70300 | ≥ 82800 | 3260 | 7030 | 70.7 | –
KPAVRFAIL | – | – | – | – | – | – | Kd (HLA-B*08:01; [7]): 1430 nM
RYNLPTMCDI | 180 | 601 | ≥ 69700 | 5260 | 90 | ≥ 70400 | –
MFFIRFGKM | – | – | – | – | – | – | Kd (HLA-B*08:01; [7]): 31.9 nM
DNAFNCTFEY | ≥ 70000 | ≥ 70300 | 132 | 14.4 | 382 | 4250 | –
HFAIGLALYY | ≥ 60900 | ≥ 70300 | 6.53 | 0.233 | 236 | 2320 | –
RMVMTTTANW | – | – | – | – | – | – | Kd (HLA-A*23:01; source organism: Dengue virus 4 Philippines/H241/1956): 52.8 nM; Kd (HLA-B*53:01): 20.5 nM
VFQSATKII | 0.162 | 0.211 | ≥ 43600 | 0.0425 | 199 | ≥ 59200 | –
MFKTKGRYNL | – | – | – | – | – | – | Kd (HLA-A*23:01; [9]): 2070 nM; Kd (HLA-A*24:02; [9]): 7170 nM; Kd (HLA-A*29:02; [9]): 68.9 nM
EPEPHILLF | – | – | – | – | – | – | Kd (HLA-A*69:01): 7050 nM; Kd (HLA-B*07:02): 5470 nM
WCSQTDYQYL | – | – | – | – | – | – | Kd (HLA-A*01:01 [4]; [10]): 13100 nM; Kd (HLA-A*23:01; [10]): 10800 nM; Kd (HLA-A*24:02; [10]): 15000 nM; Kd (HLA-A*26:01; [10]): ≥ 69700 nM; Kd (HLA-A*29:02; [10]): 9280 nM; Kd (HLA-A*30:02; [10]): 10600 nM
MYIFFASFYY | 722 | 6650 | 575 | 0.449 | 9.07 | 6700 | –
MEFIDGISL | – | – | – | – | – | – | Kd (HLA-B*40:01): 0.18 nM; Kd (HLA-B*44:02): 182 nM; Kd (HLA-B*44:03): 52.9 nM
LTNDNTSRY | ≥ 77800 | ≥ 77600 | 6.48 | 31.6 | 8.9 | 1.59 | –
AGFPAGLTY | – | – | – | – | – | – | Kd (HLA-A*01:01 [4]; [11]): ≥ 78100 nM; Kd (HLA-A*23:01; [11]): ≥ 77700 nM; Kd (HLA-A*24:02; [11]): ≥ 77500 nM; Kd (HLA-A*26:01; [11]): ≥ 77900 nM; Kd (HLA-A*29:02; [11]): 68.9 nM; Kd (HLA-A*30:02; [11]): 287 nM
FSGALDTTSY | ≥ 70000 | ≥ 70300 | 9150 | 678 | 451 | 1310 | –
KSAQCFKMFY | 5090 | 4700 | ≥ 86900 | 75.3 | ≥ 21200 | ≥ 89300 | Kd (HLA-A*03:01 [5]): 5060 nM; Kd (HLA-A*11:01 [6]): 2250 nM; Kd (HLA-A*31:01): 629 nM; Kd (HLA-A*33:01): 753 nM; Kd (HLA-A*68:01): 1450 nM

From the Immune Epitope Database (IEDB)
